# From the supplement of paper PMC10126150
# ± gives the standard deviation of the averaged measurements.
# System: ATP
# Assay: switch fluorescence ratio, 500 uM ATP over buffer (Cy3 cluster intensity, sum of 5 cycles each) (fold (ratio)); higher = stronger signal-on switching upon ATP binding; sequences stand for … in TCGTCGGCAGCGTCAGATGTGTATAAGAGACAGTTTTTTTTTTTTTTTTTTTTTTTTT…TC
# Details: aptamer strand: ATP DNA aptamer (quencher-CACCTGGGGGAGTATTGCGGAGGAAGG + anchor), 100 nM annealed; ATP concentration: 500 uM
# In short: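 Five buffer/ATP imaging cycles were run on Cy3-labelled switching-strand clusters on a modified Illumina MiSeq flow-cell, with NaOH stripping and re-annealing between cycles. In each cycle, clusters annealed to 100 nM quencher-labelled ATP aptamer were imaged in selection buffer, then after 15 min with 500 uM ATP at 22 °C. Per cluster, the fluorescence ratio is summed target-cycle over summed buffer-cycle Cy3 intensity, averaged per switch-domain sequence. Only clusters within 100-1000 RFU were kept.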
# 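Also: ATP exposure 15 min at 22 °C before imaging.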
row,Sequence,switch fluorescence ratio
1,AATCAGAGCG,1.021 ± 0.0021
2,AATCAGGAAG,1.02 ± 0.035
3,AATCAGGCGA,1.013 ± 0.0032
4,AATCATCGGT,0.999 ± 0.027
5,AATCATGCGA,0.9964 ± 0.0078
6,AATCATTTTT,0.986 ± 0.026
7,AATCCGACGA,1.66 ± 0.17
8,AATCCGTCAT,1.14 ± 0.017
9,AATCGATCGG,1.01 ± 0.028
10,AATCGCTCTG,1.01 ± 0.027
11,AATCGCTTTT,1 ± 0.053
12,AATCGGCGGG,0.975 ± 0.022
13,AATCGGTCGT,0.994 ± 0.031
14,AATCGGTTTG,0.987 ± 0.029
15,AATCGTCATC,0.991 ± 0.016
16,AATCGTCTTG,0.97 ± 0.034
17,AATCGTGGAA,1.01 ± 0.019
18,AATCGTGGGG,0.975 ± 0.017
19,AATCTAGATT,1.002 ± 0.003
20,AATCTATCCC,1.027 ± 0.0042
21,AATCTGATGG,0.974 ± 0.044
22,AATCTGGACG,1.06 ± 0.048
23,AATCTGTCGT,0.982 ± 0.054
24,AATCTTCTTA,1.001 ± 0.0034
25,AATGAAAAAC,1.007 ± 0.0054

row,Sequence,switch fluorescence ratio
1,AATGAACGTT,1.03 ± 0.078
2,AATGAAGTTT,1.43 ± 0.7
3,AATGAGACAG,1 ± 0.02
4,AATGAGATTG,0.989 ± 0.012
5,AATGAGGGGT,0.966 ± 0.031
6,AATGATAGTT,0.986 ± 0.02
7,AATGATATTG,0.998 ± 0.032
8,AATGATTCTT,0.98 ± 0.016
9,AATGATTGCG,1 ± 0.039
10,AATGCGTTTT,1.04 ± 0.023
11,AATGCTCGGC,0.9646 ± 0.0092
12,AATGCTGTAT,0.985 ± 0.011
13,AATGGAATCC,1.02 ± 0.035
14,AATGGAATTG,0.9965 ± 0.005
15,AATGGAGAAC,1.01 ± 0.028
16,AATGGATGCG,1 ± 0.029
17,AATGGATTGG,0.997 ± 0.018
18,AATGGCGGGC,1.01 ± 0.029
19,AATGGGCGCT,0.97198 ± 0.00095
20,AATGGGGACA,0.995 ± 0.051
21,AATGGGGACG,0.985 ± 0.021
22,AATGGGGACT,1 ± 0.012
23,AATGGGGGGC,1 ± 0.041
24,AATGGGGTGT,0.987 ± 0.021
25,AATGGGTGAA,0.97511 ± 0.00091

row,Sequence,switch fluorescence ratio
1,AATGGGTGGG,1 ± 0.062
2,AATGGGTGTG,1.01 ± 0.023
3,AATGGTAGAA,0.986 ± 0.048
4,AATGGTGATG,0.9904 ± 0.0077
5,AATGGTTTTC,0.9948 ± 0.0023
6,AATGTAAAAC,1.06 ± 0.066
7,AATGTAATAA,1.05 ± 0.084
8,AATGTAGGGG,1.02 ± 0.045
9,AATGTAGTTG,1.02 ± 0.027
10,AATGTGAGAC,1.07 ± 0.073
11,AATGTGCAAA,1.01 ± 0.022
12,AATGTGGGCC,1.024 ± 0.0013
13,AATGTGGGGT,0.995 ± 0.026
14,AATGTGGTCT,0.994 ± 0.021
15,AATGTTAATG,0.94 ± 0.019
16,AATGTTCGGT,0.989 ± 0.011
17,AATGTTCTTT,0.977 ± 0.062
18,AATGTTGGAG,0.985 ± 0.028
19,AATGTTGTGC,0.9381 ± 0.0049
20,AATGTTTGGG,0.981 ± 0.021
21,AATGTTTGTC,1.03 ± 0.1
22,AATGTTTTTG,1.02 ± 0.046
23,AATTAAAGGG,1.03 ± 0.066
24,AATTAAATA,0.979 ± 0.037
25,AATTAACTTT,0.985 ± 0.023

row,Sequence,switch fluorescence ratio
1,AATTAGGGAA,1.01 ± 0.023
2,AATTATACAT,1.04 ± 0.043
3,AATTATATCA,1.01 ± 0.01
4,AATTATGATG,0.9948 ± 0.0069
5,AATTATGGGC,1.023 ± 0.0064
6,AATTATGTAG,1 ± 0.014
7,AATTATGTTT,0.995 ± 0.03
8,AATTCCGAGG,1.14 ± 0.021
9,AATTCGGATG,1.02 ± 0.034
10,AATTCGTGAA,1.01 ± 0.013
11,AATTCTGGCT,1.006 ± 0.0071
12,AATTGAAAAA,1.05 ± 0.069
13,AATTGAAAAT,0.967 ± 0.0073
14,AATTGATTAG,1.03 ± 0.038
15,AATTGATTCT,1.026 ± 0.0018
16,AATTGCTCGT,1 ± 0.016
17,AATTGG,0.992 ± 0.018
18,AATTGGAGTG,0.998 ± 0.041
19,AATTGGCGGT,1.03 ± 0.027
20,AATTGGGGTA,0.989 ± 0.026
21,AATTGGGGTC,0.967 ± 0.031
22,AATTGGGTTA,0.976 ± 0.023
23,AATTGGTCCT,0.986 ± 0.041
24,AATTGGTGCG,0.985 ± 0.035
25,AATTGTATCA,1 ± 0.054

row,Sequence,switch fluorescence ratio
1,AATTGTATCT,1.01 ± 0.063
2,AATTGTGGGC,0.978 ± 0.047
3,AATTGTTAGT,0.994 ± 0.03
4,AATTGTTATT,0.9919 ± 0.0034
5,AATTGTTGCG,0.974 ± 0.015
6,AATTTAAGGC,0.985 ± 0.078
7,AATTTACTCT,1.07 ± 0.018
8,AATTTACTGG,1.13 ± 0.084
9,AATTTAGCCA,1.02 ± 0.018
10,AATTTAGGAA,0.975 ± 0.037
11,AATTTATAAT,1.01 ± 0.036
12,AATTTCAAGT,1 ± 0.039
13,AATTTCATGT,1.01 ± 0.012
14,AATTTGAGCC,0.965 ± 0.039
15,AATTTGGCGT,0.968 ± 0.011
16,AATTTGGCTG,1.22 ± 0.29
17,AATTTGGGAG,1.01 ± 0.025
18,AATTTGGGTC,0.981 ± 0.016
19,AATTTGGGTG,1.04 ± 0.049
20,AATTTGTCAT,0.972 ± 0.045
21,AATTTGTTGG,0.996 ± 0.017
22,AATTTGTTGT,0.996 ± 0.025
23,AATTTTAAAT,1.09 ± 0.21
24,AATTTTAACT,1.022 ± 0.0064
25,AATTTTGATG,0.971 ± 0.018

row,Sequence,switch fluorescence ratio
1,AATTTTTAAG,0.997 ± 0.011
2,AATTTTTCAG,0.985 ± 0.018
3,AATTTTTCGT,1 ± 0.027
4,AATTTTTGTC,1.01 ± 0.023
5,AATTTTTTTC,0.989 ± 0.015
6,ACAAAAATAG,0.993 ± 0.04
7,ACAAACCACC,1.34 ± 0.057
8,ACAAACGGCA,1.33 ± 0.024
9,ACAAAGGGAC,1.06 ± 0.12
10,ACAAAGGGGG,0.92 ± 0.087
11,ACAAAGGTCG,1.01 ± 0.022
12,ACAAATATAT,1.17 ± 0.081
13,ACAAATGGCA,1.07 ± 0.037
14,ACAACCGCTT,1.13 ± 0.017
15,ACAACGAAAG,1.039 ± 0.0061
16,ACAACGAGGT,1.015 ± 0.0093
17,ACAACTCAGG,1.22 ± 0.022
18,ACAAGATACG,1.13 ± 0.013
19,ACAAGGATTC,0.995 ± 0.025
20,ACAAGGGAGA,1.06 ± 0.012
21,ACAAGTGACG,0.988 ± 0.026
22,ACAAGTGTTC,1 ± 0.051
23,ACAAGTTGGA,1.11 ± 0.061
24,ACAATATGGG,1.01 ± 0.079
25,ACAATGGCAC,1.06 ± 0.029

row,Sequence,switch fluorescence ratio
1,ACAATTGACT,1.099 ± 0.0039
2,ACAATTGGAG,0.9969 ± 0.0044
3,ACACAATAGG,1.04 ± 0.025
4,ACACAGTAGT,1.03 ± 0.011
5,ACACCGTCTA,1.11 ± 0.023
6,ACACCTTTTT,1.04 ± 0.032
7,ACACGCGCCT,1.08 ± 0.011
8,ACACGGGAAG,1.02 ± 0.011
9,ACACGGGATG,1.06 ± 0.077
10,ACACGGGGTG,1.018 ± 0.0018
11,ACACGTAACT,1.359 ± 0.0099
12,ACACGTTGGC,1.05 ± 0.06
13,ACACTAGGTG,1.42 ± 0.023
14,ACACTGCTTA,1.02 ± 0.044
15,ACACTTTACT,1.32 ± 0.014
16,ACAGAAAGAC,1.15 ± 0.27
17,ACAGAAGGGA,1.03 ± 0.068
18,ACAGATAAAG,0.97 ± 0.045
19,ACAGCAGTGT,1.03 ± 0.035
20,ACAGCATGGA,1.04 ± 0.048
21,ACAGCATTTT,1.03 ± 0.0072
22,ACAGCCTGCC,1.3 ± 0.07
23,ACAGCGGGTG,1.087 ± 0.01
24,ACAGCTTCTA,1.03 ± 0.021
25,ACAGCTTTTT,1.01 ± 0.013

row,Sequence,switch fluorescence ratio
1,ACAGGGATCA,0.981 ± 0.052
2,ACAGGGGGCC,1.08 ± 0.12
3,ACAGGGGGGA,1.05 ± 0.046
4,ACAGGGGGTA,1.02 ± 0.024
5,ACAGGGTTGG,1.02 ± 0.03
6,ACAGGGTTGT,0.979 ± 0.013
7,ACAGTAAGAG,1.03 ± 0.049
8,ACAGTAAGTT,1.07 ± 0.016
9,ACAGTCGGGC,1.001 ± 0.0073
10,ACAGTGTCTT,1.01 ± 0.03
11,ACAGTTATTG,1.016 ± 0.0077
12,ACAGTTCGGG,0.9653 ± 0.0051
13,ACAGTTGGCC,1.02 ± 0.021
14,ACAGTTGGCT,1.0179 ± 0.00096
15,ACAGTTGTAT,1.015 ± 0.01
16,ACATAATTGA,1.03 ± 0.017
17,ACATACGAAC,1.38 ± 0.098
18,ACATAGCTGG,1.01 ± 0.029
19,ACATAGCTTT,1.03 ± 0.036
20,ACATAGGAAC,1.024 ± 0.004
21,ACATATCTTT,1.025 ± 0.0012
22,ACATATGGGC,0.974 ± 0.037
23,ACATATTTTG,1.01 ± 0.033
24,ACATCAATTC,1.1 ± 0.014
25,ACATCGGGCT,1.02 ± 0.027
